From patent publication US20140045754A1, “GLP-1 COMPOSITIONS” (priority 2011, published 2014)

How the values were obtained:
[1] = optimisation of liraglutide:protamine molar ratios: free liraglutide and protamine in supernatant by liquid chromatography; conditions: pH 7,8; 0,11 molecule of protamine per molecule of liraglutide
Procedure: In each of 8 containers, 10% of the resulting suspension was transferred. Under vigorous stirring, a specific portion of a 18 mM Protamine Chloride solution was added.
The initial container received 0,10 mL of the 18 mM Protamine Chloride solution, followed by 0,2 mL to the second container; ending with addition of 0,8 mL to the final container (number 8). Water was added to each of the eight containers to achieve a total of 5,0 grams of suspension. After 1 hour storage, about 1 mL were withdrawn from each container and centrifuged for 10 minutes at high speed.

[2] = achievable concentration of protamine sulphate stock solution with NaCl; assay type: physicochemical; conditions: 21° C.
Procedure: In one embodiment, the stock solution of the polycationic compound is prepared with NaCl. […] This allows the storage and/or use of higher concentrations and lowers the volumes of polycationic compound stock solution needed. This makes much larger volume available for either the GLP-1 compound stock solution or the solution of metal salt. Thereby, it is easier to control the mixing process, involving the aqueous solution of GLP-1 compound and the stock solution of metal salt. As a result of this, the injectability of the final formulation is improved, especially after storage at elevated temperatures. For example, a 30-60 mg/mL protamine sulphate stock solution is achievable at 21° C. when adding sodium chloride corresponding to a concentration of 0,3M, and a 30-80 mg/mL protamine sulphate stock solution is achievable at 21° C. when adding sodium chloride corresponding to a concentration of 0,5M.

Compound	composition stability and incorporation of protamine [1]	achievable stock solution concentration ([2]; sodium chloride 0,3M) [mg/mL]	achievable stock solution concentration ([2]; sodium chloride 0,5M) [mg/mL]
CCCCCCCCCCCCCCCC(=O)N[C@@H](CCC(=O)NCCCC[C@H](NC(=O)[C@H](C)NC(=O)[C@H](C)NC(=O)[C@H](CCC(N)=O)NC(=O)CNC(=O)[C@H](CCC(=O)O)NC(=O)[C@H](CC(C)C)NC(=O)[C@H](Cc1ccc(O)cc1)NC(=O)[C@H](CO)NC(=O)[C@H](CO)NC(=O)[C@@H](NC(=O)[C@H](CC(=O)O)NC(=O)[C@H](CO)NC(=O)[C@@H](NC(=O)[C@H](Cc1ccccc1)NC(=O)[C@@H](NC(=O)CNC(=O)[C@H](CCC(=O)O)NC(=O)[C@H](C)NC(=O)[C@@H](N)Cc1cnc[nH]1)[C@@H](C)O)[C@@H](C)O)C(C)C)C(=O)N[C@@H](CCC(=O)O)C(=O)N[C@@H](Cc1ccccc1)C(=O)N[C@H](C(=O)N[C@@H](C)C(=O)N[C@@H](Cc1c[nH]c2ccccc12)C(=O)N[C@@H](CC(C)C)C(=O)N[C@H](C(=O)N[C@@H](CCCNC(=N)N)C(=O)NCC(=O)N[C@@H](CCCNC(=N)N)C(=O)NCC(=O)O)C(C)C)[C@@H](C)CC)C(=O)O [liraglutide, N^ε26-[(4S)-4-carboxy-4-(hexadecanoylamino)butanoyl]-[Arg^34]-GLP-1-(7-37)-peptide]	good composition stability		
protamine sulphate		30 to 60	30 to 80
